T1: APBA2_2, Q99767
T1 sequence (Q99767 654-744, limits assumed, looked up): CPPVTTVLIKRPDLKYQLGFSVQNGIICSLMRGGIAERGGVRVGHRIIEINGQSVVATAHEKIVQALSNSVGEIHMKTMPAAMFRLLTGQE

T2: GRIP1_3, Q9Y3R0
T2 sequence (Q9Y3R0 247-346, limits assumed, looked up): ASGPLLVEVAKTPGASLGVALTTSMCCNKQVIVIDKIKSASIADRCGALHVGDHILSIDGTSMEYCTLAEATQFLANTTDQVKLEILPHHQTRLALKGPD

T3: HTRA4, P83105
T3 sequence (P83105 378-476, limits assumed, looked up): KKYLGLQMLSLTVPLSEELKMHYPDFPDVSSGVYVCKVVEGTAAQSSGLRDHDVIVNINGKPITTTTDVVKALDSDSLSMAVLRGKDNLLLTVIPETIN

T4: LNX2_3, Q8N448
T4 sequence (Q8N448 463-564, limits assumed, looked up): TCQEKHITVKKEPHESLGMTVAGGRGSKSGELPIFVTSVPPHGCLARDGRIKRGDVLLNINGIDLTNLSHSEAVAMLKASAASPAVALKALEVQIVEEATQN

T5: LRRC7, Q96NW7
T5 sequence (Q96NW7 1440-1537, limits assumed, looked up): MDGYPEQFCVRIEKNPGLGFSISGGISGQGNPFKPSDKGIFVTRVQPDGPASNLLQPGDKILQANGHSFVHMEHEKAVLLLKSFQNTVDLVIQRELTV

T6: MPDZ_5, O75970
T6 sequence (O75970 695-796, limits assumed, looked up): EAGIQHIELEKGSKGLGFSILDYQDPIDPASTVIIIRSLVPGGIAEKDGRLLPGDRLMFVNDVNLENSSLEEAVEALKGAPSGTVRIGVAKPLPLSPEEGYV

T7: MPP6, Q9NZW5
T7 sequence (Q9NZW5 125-219, limits assumed, looked up): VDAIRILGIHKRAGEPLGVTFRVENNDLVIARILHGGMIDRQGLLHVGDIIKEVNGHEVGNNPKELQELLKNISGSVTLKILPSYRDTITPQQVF

T8: RAPGEF6, Q8TEU7
T8 sequence (Q8TEU7 525-625, limits assumed, looked up): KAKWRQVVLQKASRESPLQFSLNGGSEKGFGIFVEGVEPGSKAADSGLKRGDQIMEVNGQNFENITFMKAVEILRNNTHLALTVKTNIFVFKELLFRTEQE

T9: SIPA1L2, Q9P2F8
T9 sequence (Q9P2F8 945-1036, limits assumed, looked up): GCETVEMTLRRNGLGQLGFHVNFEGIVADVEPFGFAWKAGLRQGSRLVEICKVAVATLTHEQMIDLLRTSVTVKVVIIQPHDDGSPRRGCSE

T10: SNTB1, Q13884
T10 sequence (Q13884 107-205, limits assumed, looked up): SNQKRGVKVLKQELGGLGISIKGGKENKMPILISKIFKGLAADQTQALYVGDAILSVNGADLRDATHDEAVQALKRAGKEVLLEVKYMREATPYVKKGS

T11: TIAM2, Q8IVF5
T11 sequence (Q8IVF5 885-986, limits assumed, looked up): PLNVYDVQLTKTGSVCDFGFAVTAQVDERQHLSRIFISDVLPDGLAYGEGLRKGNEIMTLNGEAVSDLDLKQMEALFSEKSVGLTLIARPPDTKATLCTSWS


Legend:
Assay in all cases: holdup assay
Parameters in all cases: key: below the threshold = too weak to quantify, mostly under pKd 3.1 to 4
Conditions in all cases: plain residues with an end cap or a label only (N-terminal biotin on a linker: ado-ado)
APBA2_2, Q99767 = target: T1, APBA2_2, Q99767
DLG1_1, Q12959 = target: DLG1_1, Q12959
DLG4_1, P78352 = target: DLG4_1, P78352
Chain of DLG4_1, P78352 (P78352 62-152): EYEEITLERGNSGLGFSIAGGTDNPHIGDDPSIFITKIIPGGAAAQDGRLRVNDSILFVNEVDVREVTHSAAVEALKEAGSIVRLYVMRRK

DLG4_3, P78352 = target: DLG4_3, P78352
Chain of DLG4_3, P78352 (P78352 306-403): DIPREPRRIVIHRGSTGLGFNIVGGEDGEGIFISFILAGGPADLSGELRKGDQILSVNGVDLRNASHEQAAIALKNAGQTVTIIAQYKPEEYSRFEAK

FRMPD2_1, Q68DX3 = target: FRMPD2_1, Q68DX3
Chain of FRMPD2_1, Q68DX3 (Q68DX3 770-861): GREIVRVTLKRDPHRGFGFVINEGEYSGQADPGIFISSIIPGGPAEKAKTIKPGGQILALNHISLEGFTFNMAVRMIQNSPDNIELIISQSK

FRMPD2_2, Q68DX3 = target: FRMPD2_2, Q68DX3
Chain of FRMPD2_2, Q68DX3 (Q68DX3 944-1038): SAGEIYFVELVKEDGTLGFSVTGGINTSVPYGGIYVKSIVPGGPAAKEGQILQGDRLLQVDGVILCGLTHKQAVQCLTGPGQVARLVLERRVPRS

GRIP1_3, Q9Y3R0 = target: T2, GRIP1_3, Q9Y3R0
GRIP2_5, Q9C0E4 = target: GRIP2_5, Q9C0E4
Chain of GRIP2_5, Q9C0E4 (Q9C0E4 544-642): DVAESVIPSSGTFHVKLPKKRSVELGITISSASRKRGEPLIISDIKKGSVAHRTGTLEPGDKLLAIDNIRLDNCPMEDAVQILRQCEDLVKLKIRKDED

HTRA1, Q92743 = target: HTRA1, Q92743
Chain of HTRA1, Q92743 (Q92743 360-477): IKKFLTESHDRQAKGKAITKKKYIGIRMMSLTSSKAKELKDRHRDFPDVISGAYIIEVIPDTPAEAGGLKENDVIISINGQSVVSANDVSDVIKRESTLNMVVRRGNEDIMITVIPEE

HTRA4, P83105 = target: T3, HTRA4, P83105
IL16_1, Q14005 = target: IL16_1, Q14005
Chain of IL16_1, Q14005 (Q14005 210-306): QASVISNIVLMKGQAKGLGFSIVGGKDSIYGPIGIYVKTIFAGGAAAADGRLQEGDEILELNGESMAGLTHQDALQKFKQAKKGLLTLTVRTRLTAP

LDB3, O75112 = target: LDB3, O75112
Chain of LDB3, O75112 (O75112 1-94): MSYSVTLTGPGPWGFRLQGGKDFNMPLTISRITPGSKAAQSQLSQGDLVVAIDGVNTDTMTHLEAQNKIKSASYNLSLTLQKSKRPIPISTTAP

LNX2_3, Q8N448 = target: T4, LNX2_3, Q8N448
LRRC7, Q96NW7 = target: T5, LRRC7, Q96NW7
MAGI2_2, Q86UL8 = target: MAGI2_2, Q86UL8
Chain of MAGI2_2, Q86UL8 (Q86UL8 410-522): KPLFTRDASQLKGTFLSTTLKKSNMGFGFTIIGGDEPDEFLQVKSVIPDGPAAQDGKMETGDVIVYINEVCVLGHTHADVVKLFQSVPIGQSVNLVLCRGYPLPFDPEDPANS

MAGI2_3, Q86UL8 = target: MAGI2_3, Q86UL8
Chain of MAGI2_3, Q86UL8 (Q86UL8 600-682): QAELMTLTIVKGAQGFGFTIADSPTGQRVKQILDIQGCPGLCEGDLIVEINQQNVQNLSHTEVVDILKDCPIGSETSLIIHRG

MAST1, Q9Y2H9 = target: MAST1, Q9Y2H9
Chain of MAST1, Q9Y2H9 (Q9Y2H9 962-1065): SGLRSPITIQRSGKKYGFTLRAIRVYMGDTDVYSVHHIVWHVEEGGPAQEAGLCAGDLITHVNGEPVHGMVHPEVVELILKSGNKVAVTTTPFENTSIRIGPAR

MPDZ_5, O75970 = target: T6, MPDZ_5, O75970
MPP6, Q9NZW5 = target: T7, MPP6, Q9NZW5
NHERF2_2, Q15599 = target: NHERF2_2, Q15599
Chain of NHERF2_2, Q15599 (Q15599 142-238): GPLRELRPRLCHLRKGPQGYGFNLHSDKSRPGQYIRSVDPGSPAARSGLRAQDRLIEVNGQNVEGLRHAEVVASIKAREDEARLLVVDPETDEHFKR

PDLIM1, O00151 = target: PDLIM1, O00151
Chain of PDLIM1, O00151 (O00151 1-87): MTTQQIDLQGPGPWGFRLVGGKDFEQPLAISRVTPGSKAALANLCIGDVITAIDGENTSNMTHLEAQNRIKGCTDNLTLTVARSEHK

PICK1, Q9NRD5 = target: PICK1, Q9NRD5
Chain of PICK1, Q9NRD5 (Q9NRD5 17-115): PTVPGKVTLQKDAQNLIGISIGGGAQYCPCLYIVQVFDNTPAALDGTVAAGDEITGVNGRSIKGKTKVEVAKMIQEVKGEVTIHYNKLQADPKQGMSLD

PTPN3, P26045 = target: PTPN3, P26045
Chain of PTPN3, P26045 (P26045 505-587): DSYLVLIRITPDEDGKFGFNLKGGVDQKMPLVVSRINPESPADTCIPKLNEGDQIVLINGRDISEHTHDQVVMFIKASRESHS

RAPGEF6, Q8TEU7 = target: T8, RAPGEF6, Q8TEU7
SIPA1L2, Q9P2F8 = target: T9, SIPA1L2, Q9P2F8
SNTB1, Q13884 = target: T10, SNTB1, Q13884
TIAM2, Q8IVF5 = target: T11, TIAM2, Q8IVF5

| Binder | pKd (APBA2_2, Q99767) | pKd (DLG1_1, Q12959) | pKd (DLG4_1, P78352) | pKd (DLG4_3, P78352) | pKd (FRMPD2_1, Q68DX3) | pKd (FRMPD2_2, Q68DX3) | pKd (GRIP1_3, Q9Y3R0) | pKd (GRIP2_5, Q9C0E4) | pKd (HTRA1, Q92743) | pKd (HTRA4, P83105) | pKd (IL16_1, Q14005) | pKd (LDB3, O75112) | pKd (LNX2_3, Q8N448) | pKd (LRRC7, Q96NW7) | pKd (MAGI2_2, Q86UL8) | pKd (MAGI2_3, Q86UL8) | pKd (MAST1, Q9Y2H9) | pKd (MPDZ_5, O75970) | pKd (MPP6, Q9NZW5) | pKd (NHERF2_2, Q15599) | other results |
| --- | --- | --- | --- | --- | --- | --- | --- | --- | --- | --- | --- | --- | --- | --- | --- | --- | --- | --- | --- | --- | --- |
| SVISRREWYV [NECTIN3, Q9NQS3] | below the threshold | below the threshold | below the threshold | 3.84 | 4.51 | 4.14 | below the threshold | below the threshold | 5.62 | 3.86 | 3.88 | below the threshold | below the threshold | 3.52 | 5.35 | below the threshold | 4.34 | 5.19 | 4.48 | below the threshold | pKd (PDLIM1, O00151): below the threshold; pKd (PICK1, Q9NRD5): below the threshold; pKd (PTPN3, P26045): 4.25; pKd (RAPGEF6, Q8TEU7): below the threshold; pKd (SIPA1L2, Q9P2F8): below the threshold; pKd (SNTB1, Q13884): below the threshold; pKd (TIAM2, Q8IVF5): 5.1 |
| RDFDYIADWC [PKN2, Q16513] | below the threshold | below the threshold | below the threshold | below the threshold | below the threshold | below the threshold | below the threshold | below the threshold | 4.72 | 4.9 | below the threshold | below the threshold | below the threshold | below the threshold | below the threshold | below the threshold | 3.8 | below the threshold | below the threshold | below the threshold | pKd (PDLIM1, O00151): below the threshold; pKd (PICK1, Q9NRD5): 4.06; pKd (PTPN3, P26045): 3.85; pKd (RAPGEF6, Q8TEU7): below the threshold; pKd (SIPA1L2, Q9P2F8): below the threshold; pKd (SNTB1, Q13884): below the threshold; pKd (TIAM2, Q8IVF5): 4.19 |
| NRVDSKETEC [ADAM17, P78536] | below the threshold | 4.32 | 4.32 | 4.42 | below the threshold | below the threshold | below the threshold | below the threshold | 3.56 | below the threshold | below the threshold | below the threshold | below the threshold | below the threshold | below the threshold | 3.64 | 3.88 | below the threshold | below the threshold | below the threshold | pKd (PDLIM1, O00151): below the threshold; pKd (PICK1, Q9NRD5): 4.08; pKd (PTPN3, P26045): 4.98; pKd (RAPGEF6, Q8TEU7): below the threshold; pKd (SIPA1L2, Q9P2F8): below the threshold; pKd (SNTB1, Q13884): 4.87; pKd (TIAM2, Q8IVF5): 3.92 |
| RRLQGTSSMV [GOLT1A, Q6ZVE7] | below the threshold | 4.08 | 4.04 | below the threshold | below the threshold | below the threshold | below the threshold | below the threshold | 4 | below the threshold | 4.13 | below the threshold | below the threshold | below the threshold | 4.69 | 3.77 | 4.35 | below the threshold | below the threshold | below the threshold | pKd (PDLIM1, O00151): below the threshold; pKd (PICK1, Q9NRD5): 4.03; pKd (PTPN3, P26045): 3.99; pKd (RAPGEF6, Q8TEU7): below the threshold; pKd (SIPA1L2, Q9P2F8): below the threshold; pKd (SNTB1, Q13884): below the threshold; pKd (TIAM2, Q8IVF5): 4.03 |
| VRPGVKESLV [SCN4A, P35499] | below the threshold | 4.71 | 4.98 | 4.39 | below the threshold | 3.91 | below the threshold | below the threshold | 3.89 | below the threshold | 4.78 | below the threshold | below the threshold | 4.02 | 5.2 | 4.51 | 4.19 | below the threshold | 3.67 | below the threshold | pKd (PDLIM1, O00151): below the threshold; pKd (PICK1, Q9NRD5): below the threshold; pKd (PTPN3, P26045): 4.78; pKd (RAPGEF6, Q8TEU7): below the threshold; pKd (SIPA1L2, Q9P2F8): below the threshold; pKd (SNTB1, Q13884): 5.05; pKd (TIAM2, Q8IVF5): below the threshold |
| LDKESFLTWL [YAP1, P46937] | below the threshold | 4.01 | below the threshold | below the threshold | below the threshold | 4.27 | below the threshold | below the threshold | 5.58 | 4.65 | 3.55 | 4.36 | below the threshold | 4.17 | 3.55 | below the threshold | 4.28 | below the threshold | below the threshold | 5.19 | pKd (PDLIM1, O00151): 4.1; pKd (PICK1, Q9NRD5): below the threshold; pKd (PTPN3, P26045): 4.62; pKd (RAPGEF6, Q8TEU7): below the threshold; pKd (SIPA1L2, Q9P2F8): below the threshold; pKd (SNTB1, Q13884): below the threshold; pKd (TIAM2, Q8IVF5): 3.6 |

From publication PMC9482650, “Quantitative fragmentomics allow affinity mapping of interactomes” (Nature Communications, 2022)
